T1: MtEccCb1-ATPase3 (ATPase3 domain of EccCb1 from Mycobacterium tuberculosis, residues 315-591) (Mycobacterium tuberculosis H37Rv, UniProt P9WNB1 315-591)
T1 sequence: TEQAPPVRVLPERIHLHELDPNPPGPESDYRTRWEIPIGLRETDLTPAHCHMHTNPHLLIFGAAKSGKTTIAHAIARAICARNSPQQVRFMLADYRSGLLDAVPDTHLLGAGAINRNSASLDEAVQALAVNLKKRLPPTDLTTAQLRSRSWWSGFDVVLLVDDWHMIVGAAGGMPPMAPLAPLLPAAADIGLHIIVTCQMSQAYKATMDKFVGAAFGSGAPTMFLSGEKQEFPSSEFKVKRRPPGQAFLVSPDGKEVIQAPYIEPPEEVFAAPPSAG

B1: MtEsxB (culture filtrate protein CFP-10 of Mycobacterium tuberculosis) (natural protein)
chain: MAEMKTDAATLAQEAGNFERISGDLKTQIDQVESTAGSLQGQWRGAAGTAAQAAVVRFQEAANKQKQELDEISTNIRQAGVQYSRADEEQQQALSSQMGF

Molecular target: T1, MtEccCb1-ATPase3 (ATPase3 domain of …)
Test: ITC
Conditions: both partners purified

Binder | Kd
RADEEQQQALSSQMGF (source: synthetic peptide) [wild-type peptide corresponding to the C-terminal 16-residues of MtEsxB] | 55 µM
B1 | 34 µM
